# Test results taken from US20250009876A1 (H LUNDBECK A S, published 2025).
# T1: PACAP27 (Pituitary Adenylate Cyclase-Activating Polypeptide, 27 amino acids) (human, the C-terminal leucine is amidated)
# T1 construct: also called human PACAP27
# T1 peptide: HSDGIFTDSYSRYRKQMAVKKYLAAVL
# T2: PACAP38 (Pituitary Adenylate Cyclase-Activating Polypeptide, 38 amino acids) (human, not fully specified; the C-terminal lysine is amidated)
# T2 construct: In the HTRF and PC-12 cell assays the peptide was N-terminally or C-terminally biotinylated; unlabelled in SPR; also called human PACAP38; huPACAP (1-38)
# T2 peptide: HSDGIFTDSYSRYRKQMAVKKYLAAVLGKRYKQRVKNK
# T3: VIP (Vasoactive Intestinal Peptide) (human)
# T3 construct: also called human VIP
# T3 peptide: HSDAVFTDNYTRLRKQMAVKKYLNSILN
# Columns and labels:
# [1] = target: T1, PACAP27 (Pituitary Adenylate …); test: inhibition of 0.1 nM 125I-PACAP27 binding to membranes with human PAC1-R long isoform, filter binding
# Description: To identify antibodies that block PACAP27 binding to PAC1-R, antibodies at an initial concentration of 30 nM were diluted in incubation buffer (50 mM Hepes pH 7.4, 1 mM CaCl₂, 5 mM MgCl₂, 0.2% BSA) and serial 1:3 dilutions were performed. Antibody dilutions (30 nM, 10 nM, 3 nM, 1 nM, 0.3 nM, 0.1 nM, 0.03 nM, 0.01 nM, 0.003 nM and 0.001 nM) were then mixed and pre-incubated at 25° C. for 30 minutes with 0.1 nM of ¹²⁵I-labelled PACAP27 in incubation buffer. The antibody: ¹²⁵I-labelled PACAP27 mixture was then added to 0.5 μg aliquots of cell membranes derived from Chem-1 cells expressing human recombinant PAC1-R long isoform in incubation buffer. The mixture was then incubated for 1 hour at 25° C. Following incubation, the samples were filtered and washed. Afterward, the filters were counted to quantitate ¹²⁵I-labelled PACAP27. As an experimental control, non-specific binding to the cell membranes was estimated using 0.1 μM of […] PACAP27.
# [2] = target: T2, PACAP38 (Pituitary Adenylate …); test: inhibition of 30 nM biotinylated PACAP38 binding to PAC1-R-expressing PC-12 cells, Eu-streptavidin TRF
# Description: (§1) To identify antibodies that block PACAP38 binding to PAC1-R-expressing cells, adherent PC-12 cells (ATCC, Manassas, VA) expressing PAC1-R were used in a Europium-based PAC1-R-expressing cells binding assay. Antibody solutions were incubated with N-terminal biotinylated PACAP38 at 10× the final concentration (100 nM or 30 nM) for 1 hr, then added to PC-12 cells that were plated 24 hrs prior in black clear bottom 96 well plates (COSTAR™, Corning Incorporated, Corning, NY) and further incubated for 1 hr at room temperature. After three washes, the cells were incubated with 20 μl Europium-labeled streptavidin (PerkinElmer, Waltham, MA) for 1 hr at room temperature. Cells were washed three times, then 20 μl DELFIA® Enhancement solution (PerkinElmer, Waltham, MA) was added to each well and incubated for 15 minutes with gentle shaking. Plates were read (Time Resolved Fluorescence (“TRF”)) on SPECTRAMAX® (Molecular Devices, Sunnyvale, CA) plate reader.
# (§2) FIGS. 14A-14H are representative of the inhibition curves obtained by this method (results are shown for Ab10, Ab20, Ab21, Ab1.H, Ab10.H, Ab21.H, Ab22, and Ab23, respectively) wherein the PAC1-R expressing cells were PC-12 cells.
# [3] = target: T3, VIP (Vasoactive Intestinal Peptide); test: SPR (ProteOn XPR36), antibody amine-coupled, peptide analyte, 1:1 Langmuir fit
# [4] = target: T2, PACAP38 (Pituitary Adenylate …); test: inhibition of 100 nM biotinylated PACAP38 binding to PAC1-R-expressing PC-12 cells, Eu-streptavidin TRF
# Description: as §1, §2
# [5] = target: T2, PACAP38 (Pituitary Adenylate …); test: HTRF binding assay, antibody dilution series on 35 nM biotinylated PACAP38
# Description: In parallel, 10 μl of an antibody dilution series (highest final concentration of 100 nM) were incubated with 10 μl of N-terminal or C-terminal biotinylated PACAP38 (35 nM final) alone, or in combination with either PACAP27 (350 nM final) or VIP (350 nM final), i.e., 10× PACAP27 or 10× VIP, respectively, in a HTRF plate. 20 μl of Eu³⁺ cryptate labeled anti-hu Fc donor and 20 μl of d2-labeled streptavidin acceptor were added to each well and incubated for 1 hour at room temperature. Fluorescence was measured at 620 and 665 nm with a delay of 300 usec.
# EC₅₀ values, i.e. the concentration of an antibody that yields a response halfway between the baseline and the maximum value within a specified time period, were computed for each antibody based upon their binding curves and are shown in Table 1 below. […] A humanized form of antibody Ab1 identified by an appended “.H”, i.e., Ab1.H also bound PACAP38 with high affinity.
# [6] = target: T3, VIP (Vasoactive Intestinal Peptide); test: SPR (ProteOn XPR36), antibody amine-coupled, peptide analyte, 1:1 Langmuir fit; SPR, direct binding of VIP to the antibody; weak, KD 2.8E-07 M
# [7] = target: T3, VIP (Vasoactive Intestinal Peptide); test: SPR (ProteOn XPR36), antibody amine-coupled, peptide analyte, 1:1 Langmuir fit; SPR, direct binding of VIP to the antibody; weak, KD 1.1E-06 M
binder,measurement,setting,value
"Ab10.H (antibody, human IgG1, kappa, N297A, Full-length humanized variant of Ab10) heavy: not shown light: DAQLTQSPSTLSASVGDRVTITCQSSESVYGNYLAWFQQKPGKAPKFLIYEASKLESGVPSRFSGSGSGTEFTLTISSLQPDDFATYYCAGGDISEGVAFGGGTKVEIKRTVAAPSVFIFPPSDEQLKSGTASVVCLLNNFYPREAKVQWKVDNALQSGNSQESVTEQDSKDSTYSLSSTLTLSKADYEKHKVYACEVTHQGLSSPVTKSFNRGEC",IC50,[1],0.22 nM
same,IC50,[2],14.5 nM
same,Kd,[3],100 nM
same,koff,[3],0.039 s⁻¹
same,kon,[3],380000 M⁻¹ s⁻¹
"Ab10 (antibody, human IgG1, kappa, N297A, V domains shown, Full-length anti-PACAP antibody; rabbit variable regions cloned onto human constant regions (rabbit/human chimeric), expressed in HEK-293) VH: QSVEESGGRLVTPGTPLTLTCTVSGIDLNSYYMTWVRQAPGKGLEWIGFIDAGGDAYYASWAKGRFTISKTSTTVDLKITSPTTEDTATYFCARDLDLWGQGTLVTVSS VL: AAVLTQTPSPVSAAVGGTVTINCQSSESVYGNYLAWFQQKPGQPPKLLIYEASKLESGVPSRFSGSGSGTQFTLTISDLQCDDAATYYCAGGDISEGVAFGGGTEVVVKR",IC50,[4],17.8 nM
same,EC50,[5],0.36 nM
same,Kd,[6],280 nM
same,koff,[6],0.01 s⁻¹
same,kon,[6],37000 M⁻¹ s⁻¹
"Ab20 (antibody, human IgG1, kappa, N297A, V domains shown, Full-length anti-PACAP antibody; rabbit/human chimeric) VH: QSVEESGGRLVTPGTPLTLTCTVSGIDLSSYYMSWVRQAPGKGLEWIGFIDTDGSAYYATWAKGRFTISKTSTTVDLKITSPTTEDTATYFCARDLDLWGPGTLVTVSS VL: AAVLTQTPSPVSAAVGGTVSISCQSSESVYSNYLAWFQQKPGQPPKFLIYEASKLASGVPSRFKGSGSGTQFTLTISDVQCDDAGTYYCAGGYSSEGVAFGGGTEVVVKR",Kd,[7],1100 nM
same,koff,[7],0.48 s⁻¹
same,kon,[7],450000 M⁻¹ s⁻¹
same,IC50,[4],32.7 nM
same,EC50,[5],0.38 nM
